Measurements published in PMC10629583 (2023).
Where no end group is shown, it is not given here. [ ]: non-standard residue; d: D form. The star is where a group is joined. FITC = O=C1OC2(c3ccc(O)cc3Oc3cc(O)ccc32)c2ccc(NC(=S)*)cc21; pT = C[C@@H](OP(=O)(O)O)[C@H](N)C(=O)O; Ahx = NCCCCCC(=O)O

Legend:
Assay in all cases: FP
FITC-GPMQTSpTPKNG = target: T1, FITC-GPMQTSpTPKNG (synthetic construct)
T1 chain: {FITC}-GPMQTS[pT]PKNG

[1] = target: PBD1 (residues 345–603) F559E (human, UniProt P53350 345-603, F559E)
[2] = target: Plk1 polo-box domain, PBD1 (residues 345–603) WT (human, UniProt P53350 345-603)
[3] = target: PBD1 (residues 345–603) F559R (human, UniProt P53350 345-603, F559R)
[4] = target: PBD1 (residues 345–603) F559D (human, UniProt P53350 345-603, F559D)
[5] = target: PBD1 (residues 345–603) F559K (human, UniProt P53350 345-603, F559K)
FITC-GPLATSpTPKNG = target: T2, FITC-GPLATSpTPKNG (synthetic construct)
T2 chain: {FITC}-GPLATS[pT]PKNG

Chain of PBD1 (residues 345–603) F559D (P53350 345-603 F559D): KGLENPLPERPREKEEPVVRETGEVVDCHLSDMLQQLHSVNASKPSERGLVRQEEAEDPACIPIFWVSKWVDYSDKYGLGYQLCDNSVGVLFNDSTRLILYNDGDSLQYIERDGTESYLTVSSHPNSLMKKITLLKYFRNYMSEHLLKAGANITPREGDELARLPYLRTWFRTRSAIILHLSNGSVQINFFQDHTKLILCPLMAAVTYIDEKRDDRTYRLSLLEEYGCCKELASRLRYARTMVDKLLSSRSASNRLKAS
Chain of PBD1 (residues 345–603) F559K (P53350 345-603 F559K): as the sequence (P53350 345-603 F559D) above, with D215K counted along it
Chain of Plk1 polo-box domain, PBD1 (residues 345–603) WT (P53350 345-603): as the sequence (P53350 345-603 F559D) above, with D215F counted along it
Chain of PBD1 (residues 345–603) F559E (P53350 345-603 F559E): as the sequence (P53350 345-603 F559D) above, with D215E counted along it
Chain of PBD1 (residues 345–603) F559R (P53350 345-603 F559R): as the sequence (P53350 345-603 F559D) above, with D215R counted along it

B1: PBD2 S652F (protein)
chain: HLSSPAKNFFKKAAAALFGGKKDKARYIDTHNRVSKEDEDIYKLRHDLKKTSITQQPSKHRTDEELQPPTTTVARSGTPAVENKQQIGDAIRMIVRGTLGSCSSSSECLEDSTMGSVADTVARVLRGCLENMPEADCIPKEQLSTSFQWVTKWVDYSNKYGFGYQLSDHTVGVLFNNGAHMSLLPDKKTVHYYAELGQCSVFPATDAPEQFISQVTVLKYFSHYMEENLMDGGDLPSVTDIRRPRLYLLQWLKSDKALMMLFNDGTFQVNFYHDHTKIIICSQNEEYLLTYINEDRIFTTFRLTTLLMSGCSSELKNRMEYALNMLLQRCN
FITC-GPMQTSpTPKNG
  Kd: 62.7 nM

B2: PBD2 (protein)
chain: HLSSPAKNFFKKAAAALFGGKKDKARYIDTHNRVSKEDEDIYKLRHDLKKTSITQQPSKHRTDEELQPPTTTVARSGTPAVENKQQIGDAIRMIVRGTLGSCSSSSECLEDSTMGSVADTVARVLRGCLENMPEADCIPKEQLSTSFQWVTKWVDYSNKYGFGYQLSDHTVGVLFNNGAHMSLLPDKKTVHYYAELGQCSVFPATDAPEQFISQVTVLKYFSHYMEENLMDGGDLPSVTDIRRPRLYLLQWLKSDKALMMLFNDGTFQVNFYHDHTKIIICSQNEEYLLTYINEDRISTTFRLTTLLMSGCSSELKNRMEYALNMLLQRCN
FITC-GPMQTSpTPKNG
  Kd: 80.2 nM

B3: FITC-Ahx-DPPLHSpTAI-NH2 (peptide)
peptide: {FITC-Ahx}-DPPLHS[pT]AI-NH2
SMILES: CC[C@H](C)[C@H](NC(=O)[C@H](C)NC(=O)[C@@H](NC(=O)[C@H](CO)NC(=O)[C@H](Cc1c[nH]cn1)NC(=O)[C@H](CC(C)C)NC(=O)[C@@H]1CCCN1C(=O)[C@@H]1CCCN1C(=O)[C@H](CC(=O)O)NC(=O)CCCCCNC(=S)Nc1ccc2c(c1)C(=O)OC21c2ccc(O)cc2Oc2cc(O)ccc21)[C@@H](C)OP(=O)(O)O)C(N)=O
[1]
  Kd: 124 nM
[2]
  Kd: 16.8 nM
[3]
  Kd: 460 nM
[4]
  Kd: 28.1 nM
[5]
  Kd: 704 nM

B4: MBP-PBD3 A612F (protein)
chain: TPPNPARSLFAKVTKSLFGRKKKSKNHAQERDEVSGLVSGLMRTSVGHQDARPEAPAASGPAPVSLVETAPEDSSPRGTLASSGDGFEEGLTVATVVESALCALRNCIAFMPPAEQNPAPLAQPEPLVWVSKWVDYSNKFGFGYQLSSRRVAVLFNDGTHMALSANRKTVHYNPTSTKHFSFSVGAVPRALQPQLGILRYFASYMEQHLMKGGDLPSVEEVEVPAPPLLLQWVKTDQALLMLFSDGTVQVNFYGDHTKLILSGWEPLLVTFVARNRSFCTYLASHLRQLGCSPDLRQRLRYALRLLRDRSPA
FITC-GPLATSpTPKNG
  Kd: 85.4 nM

B5: MBP-PBD3 (protein)
chain: TPPNPARSLFAKVTKSLFGRKKKSKNHAQERDEVSGLVSGLMRTSVGHQDARPEAPAASGPAPVSLVETAPEDSSPRGTLASSGDGFEEGLTVATVVESALCALRNCIAFMPPAEQNPAPLAQPEPLVWVSKWVDYSNKFGFGYQLSSRRVAVLFNDGTHMALSANRKTVHYNPTSTKHFSFSVGAVPRALQPQLGILRYFASYMEQHLMKGGDLPSVEEVEVPAPPLLLQWVKTDQALLMLFSDGTVQVNFYGDHTKLILSGWEPLLVTFVARNRSACTYLASHLRQLGCSPDLRQRLRYALRLLRDRSPA
FITC-GPLATSpTPKNG
  Kd: 62.4 nM
